Molecular target: TAP-tagged ISWI (D. melanogaster) (UniProt Q24368)
Assay: pull-down; tandem affinity purification of TAP-tagged ISWI from larval nuclear extracts (IPP150 buffer): IgG agarose, TEV cleavage, calmodulin resin, SDS elution; Western blot for ISWI, Sin3A, Rpd3; untagged extracts as control

Chain of UniProt Q24368 (Q24368 whole entry): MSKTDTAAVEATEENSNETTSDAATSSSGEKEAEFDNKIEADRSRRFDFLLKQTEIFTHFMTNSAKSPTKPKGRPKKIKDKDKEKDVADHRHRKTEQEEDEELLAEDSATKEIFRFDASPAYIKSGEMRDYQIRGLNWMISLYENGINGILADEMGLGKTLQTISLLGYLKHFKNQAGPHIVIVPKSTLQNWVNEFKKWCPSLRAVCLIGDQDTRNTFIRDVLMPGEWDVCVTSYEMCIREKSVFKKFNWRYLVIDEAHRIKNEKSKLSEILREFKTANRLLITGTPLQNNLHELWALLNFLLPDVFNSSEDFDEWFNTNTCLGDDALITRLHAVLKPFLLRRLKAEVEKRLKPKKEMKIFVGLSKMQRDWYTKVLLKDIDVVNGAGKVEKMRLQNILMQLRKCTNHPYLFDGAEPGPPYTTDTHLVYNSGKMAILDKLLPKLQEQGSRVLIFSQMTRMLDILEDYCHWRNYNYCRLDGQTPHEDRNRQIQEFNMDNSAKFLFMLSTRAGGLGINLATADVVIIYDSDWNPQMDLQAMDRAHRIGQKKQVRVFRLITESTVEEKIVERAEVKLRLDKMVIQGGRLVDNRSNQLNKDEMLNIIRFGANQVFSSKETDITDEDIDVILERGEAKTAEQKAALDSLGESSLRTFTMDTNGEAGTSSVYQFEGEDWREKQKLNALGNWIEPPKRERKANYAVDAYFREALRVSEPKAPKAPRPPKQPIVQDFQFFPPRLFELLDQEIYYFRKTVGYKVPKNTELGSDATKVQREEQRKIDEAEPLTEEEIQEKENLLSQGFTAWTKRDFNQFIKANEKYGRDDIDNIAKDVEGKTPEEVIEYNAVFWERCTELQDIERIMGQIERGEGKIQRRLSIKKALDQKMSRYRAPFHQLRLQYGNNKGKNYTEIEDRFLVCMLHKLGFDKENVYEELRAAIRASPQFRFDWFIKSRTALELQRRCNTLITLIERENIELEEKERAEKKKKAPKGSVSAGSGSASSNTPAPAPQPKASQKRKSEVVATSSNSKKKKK

percent of the total protein in larval nuclear extract associated with ISWI (densitometry): 15%
Substance: Sin3A (natural protein)
